# The supplement of paper PMC7125110
# ± gives the standard error. Variants at the floor of the assay were thinned out.
# B1: glmS ribozyme (parent)
# chain: AUAAAAGCGCCAGAACUACAGAAAUGUAGUUGACGAGGAGGAGGUUUAUCGAAUUUUCGGCGGAUGCCUCCAAA
# Tests used:
# Details in all cases: with glucosamine-6-phosphate
# glucosamine-6-phosphate [1] = variants of: B1; test: self-cleavage kobs at 40 uM GlcN6P; higher = faster cleavage; RNA array
# Summary of the method: (§1)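 Ribozyme variants carrying barcodes were transcribed in situ on sequenced MiSeq chips by E. coli RNA polymerase and tracked at 37 °C with a hybridised Cy3 probe. They were exposed to 40 μM to 10 mM glucosamine-6-phosphate in HEPES/KCl/Mg(OAc)2 buffer. kobs came from exponential decay fits of normalised per-tile medians, and kcat and KM from weighted Michaelis–Menten fits.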
# glucosamine-6-phosphate [2] = variants of: B1; test: self-cleavage kobs at 160 uM GlcN6P; higher = faster cleavage; RNA array
# Summary of the method: as §1
# glucosamine-6-phosphate [3] = variants of: B1; test: self-cleavage kobs at 640 uM GlcN6P; higher = faster cleavage; RNA array
# Summary of the method: as §1
# glucosamine-6-phosphate [4] = variants of: B1; test: self-cleavage kobs at 10000 uM GlcN6P; higher = faster cleavage; RNA array
# Summary of the method: as §1
# glucosamine-6-phosphate [5] = variants of: B1; test: self-cleavage kobs at 2500 uM GlcN6P; higher = faster cleavage; RNA array
# Summary of the method: as §1
Variant,self-cleavage kobs at 40 uM GlcN6P (glucosamine-6-phosphate [1]) [s⁻¹],self-cleavage kobs at 160 uM GlcN6P (glucosamine-6-phosphate [2]) [s⁻¹],self-cleavage kobs at 640 uM GlcN6P (glucosamine-6-phosphate [3]) [s⁻¹],self-cleavage kobs at 10000 uM GlcN6P (glucosamine-6-phosphate [4]) [s⁻¹],self-cleavage kobs at 2500 uM GlcN6P (glucosamine-6-phosphate [5]) [s⁻¹]
A53U C71A,0.000169 ± 1.6e-05,0.000145 ± 3.8e-05,0.00145 ± 0.00029,0.00487 ± 0.00058,
C8G C67A,< 1e-05,< 1e-05,< 1e-05,< 1e-05,< 1e-05
G9A A14C A48C,< 1e-05,,,,
C8G G40U,< 1e-05,,< 1e-05,< 1e-05,< 1e-05
A28C C34A G62C,< 1e-05,,,< 1e-05,
A48U G62U C68G,< 1e-05,,,,
G32A A39C G44U,< 1e-05,,,< 1e-05,
U49A C50G U57A C67A C71A,0.000473 ± 0.00018,0.000223 ± 6.6e-05,0.000357 ± 0.00011,,7.6e-05 ± 3.3e-05
A39G U56G,0.00055 ± 0.00012,,,0.0224 ± 0.0047,
C11G G43U A48U C61G A64G,< 1e-05,,< 1e-05,< 1e-05,< 1e-05
G9C U65A,< 1e-05,,,,< 1e-05
C8U G29U,< 1e-05,< 1e-05,< 1e-05,< 1e-05,< 1e-05
A6G G35A A39C G62C U65G C67A,< 1e-05,,,,
G32U C34A A48U C70A,< 1e-05,,,,
C34U G35U,< 1e-05,< 1e-05,< 1e-05,< 1e-05,< 1e-05
U47G G66A C70U,0.000121 ± 3e-05,,,0.00591 ± 0.0017,
G32A G43U C67U,< 1e-05,,,,< 1e-05
A12U U49C,< 1e-05,,,,< 1e-05
A33G U65G,< 1e-05,< 1e-05,< 1e-05,< 1e-05,< 1e-05
C34G C50A,< 1e-05,,< 1e-05,,
G29A C61U G63A,< 1e-05,,,,
C34A U56C,< 1e-05,,< 1e-05,< 1e-05,< 1e-05
U65G C71A,4.51e-05 ± 1.7e-05,6.43e-05 ± 2e-05,0.000497 ± 5.7e-05,0.00276 ± 0.00056,0.000938 ± 0.00015
G7U U49A,< 1e-05,< 1e-05,< 1e-05,< 1e-05,< 1e-05

Variant,self-cleavage kobs at 40 uM GlcN6P (glucosamine-6-phosphate [1]) [s⁻¹],self-cleavage kobs at 160 uM GlcN6P (glucosamine-6-phosphate [2]) [s⁻¹],self-cleavage kobs at 640 uM GlcN6P (glucosamine-6-phosphate [3]) [s⁻¹],self-cleavage kobs at 10000 uM GlcN6P (glucosamine-6-phosphate [4]) [s⁻¹],self-cleavage kobs at 2500 uM GlcN6P (glucosamine-6-phosphate [5]) [s⁻¹]
C8U A42G,< 1e-05,< 1e-05,,< 1e-05,
G62U G63U C68G,< 1e-05,,,,
G37A U54A,7.84e-05 ± 1.8e-05,,,0.00478 ± 0.00082,
A53G G66A C67A,0.000154 ± 2.9e-05,,,0.0038 ± 0.00083,0.0011 ± 0.0002
A6G A52G A53G C67G,6.36e-05 ± 3.1e-05,,0.00028 ± 0.00011,,
G13C U31C C71U,4.32e-05 ± 2e-05,,,0.00114 ± 0.00023,
A39G G63U G66A,< 1e-05,,< 1e-05,< 1e-05,< 1e-05
A48C C61A,< 1e-05,,< 1e-05,< 1e-05,
A14C C34A C67U,< 1e-05,,,< 1e-05,< 1e-05
U46A A48U U57A G60U C67U C68A,< 1e-05,,,,< 1e-05
C11A A14C A36G C50U C58U C61G,0.000206 ± 8.1e-05,,,,
C16A G26A C68G,3.64e-05 ± 1.7e-05,,,3.65e-05 ± 1.5e-05,
C34U U69A,0.000116 ± 2.4e-05,,0.00034 ± 0.00012,,
C11G G13A,< 1e-05,< 1e-05,,< 1e-05,
G41A G51C,< 1e-05,< 1e-05,< 1e-05,,
G40U U56G G62C C67G,< 1e-05,,,,
G32A U55G,4.93e-05 ± 1.7e-05,,0.000327 ± 5.7e-05,0.00326 ± 0.00054,0.000627 ± 0.00014
G29U G37C A42U,< 1e-05,,< 1e-05,,< 1e-05
A14U G43C U69A,< 1e-05,,,< 1e-05,
A6G U49G,< 1e-05,,,,< 1e-05
G38C C58U,< 1e-05,,< 1e-05,< 1e-05,< 1e-05
G7C A48U C70G,< 1e-05,,,< 1e-05,
A15G U47G G60A C61U C68A,6.07e-05 ± 2.7e-05,,0.000299 ± 9.2e-05,,0.00013 ± 3.6e-05
G29C U65C,< 1e-05,< 1e-05,,,

Variant,self-cleavage kobs at 40 uM GlcN6P (glucosamine-6-phosphate [1]) [s⁻¹],self-cleavage kobs at 160 uM GlcN6P (glucosamine-6-phosphate [2]) [s⁻¹],self-cleavage kobs at 640 uM GlcN6P (glucosamine-6-phosphate [3]) [s⁻¹],self-cleavage kobs at 10000 uM GlcN6P (glucosamine-6-phosphate [4]) [s⁻¹],self-cleavage kobs at 2500 uM GlcN6P (glucosamine-6-phosphate [5]) [s⁻¹]
G35A G51A,< 1e-05,,,< 1e-05,
C11U G35C,< 1e-05,,,,
G7U A12U A52G U55G,< 1e-05,,,< 1e-05,
A15G C34A G62U,< 1e-05,,,< 1e-05,
C16A C58U,< 1e-05,< 1e-05,,3.14e-05 ± 1.3e-05,
C34U C58G C68U,0.000265 ± 9.2e-05,,,0.000425 ± 0.00014,
G35U G59C,< 1e-05,< 1e-05,< 1e-05,< 1e-05,< 1e-05
A42G A52U C70A,< 1e-05,< 1e-05,,,
G32C G66U,< 1e-05,< 1e-05,,,
G9C G37U,< 1e-05,< 1e-05,< 1e-05,,< 1e-05
A6C A12U G29A C68G,< 1e-05,,< 1e-05,,< 1e-05
C8A U45A A53U,< 1e-05,,,,
A6C C50G C70U,0.000111 ± 3.3e-05,,0.000347 ± 0.0001,0.000121 ± 2.9e-05,0.000114 ± 2.7e-05
A33C G41C U57G,< 1e-05,,,,< 1e-05
G40A U47C G62A A64C C70U,< 1e-05,,,< 1e-05,< 1e-05
G60U G62U,< 1e-05,< 1e-05,< 1e-05,< 1e-05,< 1e-05
U49C G63A C67G,< 1e-05,,,< 1e-05,
A6U G35C G62A,< 1e-05,< 1e-05,< 1e-05,< 1e-05,< 1e-05
A6C A39G G41A U46A A64G,< 1e-05,,,< 1e-05,
C50A G63C,< 1e-05,< 1e-05,,< 1e-05,
G9A C16G G63A A64G,< 1e-05,< 1e-05,< 1e-05,,< 1e-05
A33G U55C G59A,< 1e-05,,< 1e-05,< 1e-05,< 1e-05
A15C G32U A33C,< 1e-05,< 1e-05,< 1e-05,< 1e-05,< 1e-05
A39C A48U G59U,< 1e-05,,,< 1e-05,

Variant,self-cleavage kobs at 40 uM GlcN6P (glucosamine-6-phosphate [1]) [s⁻¹],self-cleavage kobs at 160 uM GlcN6P (glucosamine-6-phosphate [2]) [s⁻¹],self-cleavage kobs at 640 uM GlcN6P (glucosamine-6-phosphate [3]) [s⁻¹],self-cleavage kobs at 10000 uM GlcN6P (glucosamine-6-phosphate [4]) [s⁻¹],self-cleavage kobs at 2500 uM GlcN6P (glucosamine-6-phosphate [5]) [s⁻¹]
C34U U55C,< 1e-05,< 1e-05,< 1e-05,< 1e-05,< 1e-05
A6G G32U U46G,< 1e-05,,,< 1e-05,
G37C U54A U55C G63C U69G,< 1e-05,,,< 1e-05,
A15G A64U C68U,< 1e-05,,,,
G9A A15G,< 1e-05,< 1e-05,< 1e-05,2.27e-05 ± 1.1e-05,
G7C C11U G29A G40A A42U G62U,< 1e-05,,,,
G9A A14G U30A,< 1e-05,< 1e-05,< 1e-05,4.06e-05 ± 1.5e-05,
G40U G51A,< 1e-05,,< 1e-05,< 1e-05,< 1e-05
G43U G63C,< 1e-05,< 1e-05,< 1e-05,,< 1e-05
C10U G43C C50U C70U,< 1e-05,,,< 1e-05,< 1e-05
G29U U56G G62U,< 1e-05,,,,
A39C G62A,< 1e-05,,< 1e-05,< 1e-05,
G32U A64G C71U,< 1e-05,,,0.000175 ± 3.6e-05,0.000459 ± 0.00016
U31A G38U A42C U55G,< 1e-05,,< 1e-05,,
G38U G59C,< 1e-05,,< 1e-05,,< 1e-05
G29A A36U A39G G41U C67G,< 1e-05,,,,< 1e-05
G59A U65G,< 1e-05,,,,
G9U C10G,< 1e-05,< 1e-05,< 1e-05,< 1e-05,< 1e-05
C34U A52G,< 1e-05,< 1e-05,,< 1e-05,
C8A G44C C70A,< 1e-05,,,< 1e-05,
G41A G43U A53G C71G,< 1e-05,,,,< 1e-05
G29U U45A C61A,< 1e-05,,,,
